According to paper PMC7286605:
“And” between values parts separate entries of the source, which are not always exact repeats. Equal values may be shown once.

Legend:
[1] = biological target: water-soluble variant of the μ-opioid receptor (wsMOR) (UniProt P35372); test: MoS2 field-effect transistor biosensor
[2] = biological target: water-soluble variant of the μ-opioid receptor (wsMOR) (UniProt P35372); test: photonic crystal Fano resonance shift

- EC50 [1]: 1.2 nM and 1.5 nM
- Kd [1]: 3.6 nM
- EC50 [2]: 1 nM and 1.2 nM
- Kd [2]: 2.5 nM
Substance: DAMGO ([D-Ala2, N-MePhe4, Gly-ol]-enkephalin) (peptide)
